The target of assay [1] is CD56 on the surface of human neuroblastoma cells (human) (UniProt P13591). Put plainly: cell-based or functional assay.
Assay [2] has the same target.
Assay [3] addresses human CD56 whole ectodomain (residues 20-720) (human) (UniProt P13591). In words: SPR (BIACORE X100), CD56 ectodomain immobilized, Fab in flow, 1:1 model.
For assay [4] the target is unchanged. Put plainly: BIACORE, Fab on immobilised CD56 ectodomain.

B1: m906 IgG1 (antibody, V domains shown)
VH: EVQLVQSGAEVKKPGSSVKVSCKASGGTFTGYYMHWVRQAPGQGLEWMGWINPNSGGTNYAQKFQGRVTMTRDTSISTAYMELSRLRSDDTAVYYCARDLSSGYSGYFDYWGQGTLVTVSS
VL: DVVMTQSPLSLPVTPGEPASISCRSSQSLLHSNGYNFLDWYLQKPGQSPQLLIYLGSNRASGVPDRFSGSGSGTDFTLKISRVEADDVGVYYCMQSLQTPWTFGHGTKVEIKR
In assay [1], B1 showed a percent reduction in CD56 cell surface expression, Kelly cells, 50 nM m906 overnight of 93%; a percent reduction in CD56 cell surface expression, SKNAS cells, 50 nM m906 overnight of 21%; a percent reduction in CD56 cell surface expression, other neuroblastoma cell lines, 50 nM m906 overnight greater than 60%.

B2: m906PBD (antibody, V domains shown)
VH: EVQLVQSGAEVKKPGSSVKVSCKASGGTFTGYYMHWVRQAPGQGLEWMGWINPNSGGTNYAQKFQGRVTMTRDTSISTAYMELSRLRSDDTAVYYCARDLSSGYSGYFDYWGQGTLVTVSS
VL: DVVMTQSPLSLPVTPGEPASISCRSSQSLLHSNGYNFLDWYLQKPGQSPQLLIYLGSNRASGVPDRFSGSGSGTDFTLKISRVEADDVGVYYCMQSLQTPWTFGHGTKVEIKR
modifications: PBD-MC conjugated to cysteine residues of the reduced IgG (sites not given); PBD-MC (pyrrolobenzodiazepine dimer with maleimide) conjugated to cysteine residues of the reduced IgG
In turn, B2 showed a killing of IMR5 cells (cell viability, 4 days) in assay [1] of 5 pM. In assay [2], this molecule displayed an IC50 (read off the curve), % survival of CHP134 cells, ADC alone of 0.01 nM.

B3: m906 Fab (Fab, V domains shown)
VH: EVQLVQSGAEVKKPGSSVKVSCKASGGTFTGYYMHWVRQAPGQGLEWMGWINPNSGGTNYAQKFQGRVTMTRDTSISTAYMELSRLRSDDTAVYYCARDLSSGYSGYFDYWGQGTLVTVSS
VL: DVVMTQSPLSLPVTPGEPASISCRSSQSLLHSNGYNFLDWYLQKPGQSPQLLIYLGSNRASGVPDRFSGSGSGTDFTLKISRVEADDVGVYYCMQSLQTPWTFGHGTKVEIKR
For B3, the values for the Kd in assay [3] and in assay [4] were 4.5 nM and 4.49 nM, respectively.

The term Kd denotes the constant that tells how readily two partners part at equilibrium.

These data come from patent publication US20180214568A1.
